From the supplement of paper PMC9112550, “Optimization of the antimicrobial peptide Bac7 by deep mutational scanning” (BMC Biology, 2022)

Tested on: Escherichia coli TOP10
Experiment: shrunken log2 fold change of peptide-encoding DNA abundance (4.5 h post-induction vs induction); higher = less antimicrobial activity (less host growth inhibition)
Conditions: time post-induction: 4.5 h; library: site-saturation at positions 5, 18, 19, 20
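Also: peptides expressed intracellularly from a pBAD plasmid library in pooled LB shake-flask culture, induced with 0.3% L-arabinose, DNA abundance read by NGS, three biological replicates, DESeq2 with apeglm shrinkage.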

Sequence	shrunken log2 fold change
RRIRCRPPRLPRPRPRPDHCPRP	0.00334
RRIRGRPPRLPRPRPRPLHAPRP	1.54
RRIRWRPPRLPRPRPRPMMFPRP	-0.117
RRIRHRPPRLPRPRPRPTCMPRP	-0.184
RRIRRRPPRLPRPRPRPAVHPRP	0.321
RRIRQRPPRLPRPRPRPAYHPRP	-0.826
RRIRKRPPRLPRPRPRPQVLPRP	-0.165
RRIRLRPPRLPRPRPRPFYKPRP	-0.349
RRIRRRPPRLPRPRPRPHKFPRP	-0.132
RRIRQRPPRLPRPRPRPDKWPRP	-0.00997
RRIRLRPPRLPRPRPRPVIEPRP	-0.0888
RRIRERPPRLPRPRPRPGVKPRP	-0.0766
RRIRNRPPRLPRPRPRPDQGPRP	-0.257
RRIRHRPPRLPRPRPRPCEPPRP	0.195
RRIRPRPPRLPRPRPRPVASPRP	0.00755
RRIRARPPRLPRPRPRPGQVPRP	0.402
RRIRCRPPRLPRPRPRPVYTPRP	-0.222
RRIRPRPPRLPRPRPRPIECPRP	-0.206
RRIRSRPPRLPRPRPRPLGHPRP	-0.051
RRIRVRPPRLPRPRPRPRKCPRP	-0.0338
RRIRMRPPRLPRPRPRPFFPPRP	-1.89e-05
RRIRSRPPRLPRPRPRPYYAPRP	-0.551
RRIRHRPPRLPRPRPRPKMFPRP	-0.0772
RRIRARPPRLPRPRPRPWWFPRP	0.049
RRIRLRPPRLPRPRPRPEEMPRP	0.034

Sequence	shrunken log2 fold change
RRIRYRPPRLPRPRPRPVTEPRP	-0.134
RRIRLRPPRLPRPRPRPEKPPRP	0.148
RRIRRRPPRLPRPRPRPLIMPRP	-0.325
RRIRPRPPRLPRPRPRPAHQPRP	0.387
RRIRSRPPRLPRPRPRPEMKPRP	0.114
RRIRLRPPRLPRPRPRPMPMPRP	0.0663
RRIRQRPPRLPRPRPRPDLIPRP	0.0281
RRIRMRPPRLPRPRPRPPPDPRP	1.9
RRIRERPPRLPRPRPRPCTHPRP	-1.36
RRIRQRPPRLPRPRPRPRPSPRP	0.112
RRIRQRPPRLPRPRPRPAKPPRP	-0.0548
RRIRTRPPRLPRPRPRPWDTPRP	-0.15
RRIRYRPPRLPRPRPRPPSHPRP	-0.383
RRIRTRPPRLPRPRPRPGCYPRP	-0.115
RRIRFRPPRLPRPRPRPPWPPRP	0.564
RRIRLRPPRLPRPRPRPVGWPRP	0.671
RRIRPRPPRLPRPRPRPLNRPRP	-0.0518
RRIRARPPRLPRPRPRPDEDPRP	2.09
RRIRTRPPRLPRPRPRPPARPRP	0.546
RRIRLRPPRLPRPRPRPMFDPRP	-0.249
RRIRLRPPRLPRPRPRPRHVPRP	-0.127
RRIRYRPPRLPRPRPRPIGHPRP	3.4
RRIRYRPPRLPRPRPRPSLRPRP	-0.9
RRIRRRPPRLPRPRPRPKKMPRP	0.318
RRIRDRPPRLPRPRPRPDHKPRP	-0.119

Sequence	shrunken log2 fold change
RRIRDRPPRLPRPRPRPADHPRP	-0.0509
RRIRPRPPRLPRPRPRPPCYPRP	0.0837
RRIRVRPPRLPRPRPRPVICPRP	-0.0928
RRIRDRPPRLPRPRPRPPLAPRP	0.448
RRIRFRPPRLPRPRPRPHMTPRP	-0.186
RRIRCRPPRLPRPRPRPMPMPRP	-0.174
RRIRMRPPRLPRPRPRPCQTPRP	0.0245
RRIRDRPPRLPRPRPRPKRGPRP	0.0777
RRIRARPPRLPRPRPRPANNPRP	-0.0617
RRIRFRPPRLPRPRPRPHTMPRP	-0.459
RRIRKRPPRLPRPRPRPFFTPRP	0.19
RRIRHRPPRLPRPRPRPVITPRP	0.0477
RRIRLRPPRLPRPRPRPKIAPRP	-0.203
RRIRQRPPRLPRPRPRPPTNPRP	0.201
RRIRERPPRLPRPRPRPTKIPRP	-0.19
RRIRFRPPRLPRPRPRPKMTPRP	-0.173
RRIRARPPRLPRPRPRPQWAPRP	0.156
RRIRQRPPRLPRPRPRPFNRPRP	-0.0328
RRIRKRPPRLPRPRPRPQNQPRP	0.0634
RRIRNRPPRLPRPRPRPESAPRP	-0.0184
RRIRCRPPRLPRPRPRPITKPRP	-0.297
RRIRKRPPRLPRPRPRPPCFPRP	0.211
RRIRPRPPRLPRPRPRPSSRPRP	-0.863
RRIRSRPPRLPRPRPRPPFPPRP	0.256
RRIRDRPPRLPRPRPRPDKWPRP	-0.0651

Sequence	shrunken log2 fold change
RRIRQRPPRLPRPRPRPWHTPRP	-0.169
RRIRMRPPRLPRPRPRPTYNPRP	-0.361
RRIRKRPPRLPRPRPRPHLYPRP	0.0535
RRIRGRPPRLPRPRPRPKVIPRP	0.197
RRIRCRPPRLPRPRPRPIQAPRP	0.0936
RRIRNRPPRLPRPRPRPWCCPRP	0.007
RRIRSRPPRLPRPRPRPYKTPRP	-0.0144
RRIRERPPRLPRPRPRPVRWPRP	0.635
RRIRRRPPRLPRPRPRPRDVPRP	0.328
RRIRCRPPRLPRPRPRPRSFPRP	-0.342
RRIRQRPPRLPRPRPRPSEKPRP	-0.018
RRIRVRPPRLPRPRPRPKKRPRP	0.154
RRIRNRPPRLPRPRPRPTHGPRP	-0.0213
RRIRERPPRLPRPRPRPENLPRP	-0.226
RRIRGRPPRLPRPRPRPDDHPRP	0.18
RRIRVRPPRLPRPRPRPHCDPRP	-0.401
RRIRLRPPRLPRPRPRPWKHPRP	-0.0177
RRIRFRPPRLPRPRPRPVNHPRP	-0.384
RRIRMRPPRLPRPRPRPNKNPRP	0.152
RRIRTRPPRLPRPRPRPVGMPRP	-0.388
RRIRWRPPRLPRPRPRPMNQPRP	-0.33
RRIRFRPPRLPRPRPRPQHFPRP	0.205
RRIRYRPPRLPRPRPRPLKDPRP	-0.00674
RRIRHRPPRLPRPRPRPKIPPRP	-0.254
RRIRSRPPRLPRPRPRPEWTPRP	0.329

Sequence	shrunken log2 fold change
RRIRMRPPRLPRPRPRPYWNPRP	-1.04
RRIRRRPPRLPRPRPRPICRPRP	0.378
RRIRIRPPRLPRPRPRPGPSPRP	0.108
RRIRQRPPRLPRPRPRPRTEPRP	2.94
RRIRMRPPRLPRPRPRPSSCPRP	0.112
RRIRGRPPRLPRPRPRPHAEPRP	2.68
RRIRLRPPRLPRPRPRPAPIPRP	0.0892
RRIRSRPPRLPRPRPRPSSRPRP	-0.288
RRIRARPPRLPRPRPRPWNGPRP	0.0566
RRIRLRPPRLPRPRPRPAHKPRP	0.384
RRIRARPPRLPRPRPRPYQRPRP	-0.229
RRIRHRPPRLPRPRPRPPERPRP	0.511
RRIRWRPPRLPRPRPRPFVCPRP	-0.108
RRIRQRPPRLPRPRPRPGNTPRP	0.0649
RRIRKRPPRLPRPRPRPQMGPRP	0.0203
RRIRLRPPRLPRPRPRPWSYPRP	-1.41
RRIRSRPPRLPRPRPRPCWLPRP	0.102
RRIRPRPPRLPRPRPRPHRDPRP	-0.0367
RRIRGRPPRLPRPRPRPFALPRP	0.278
RRIRSRPPRLPRPRPRPEDMPRP	-0.088
RRIRRRPPRLPRPRPRPWGWPRP	0.482
RRIRQRPPRLPRPRPRPDCAPRP	0.0476
RRIRNRPPRLPRPRPRPDIKPRP	-0.171
RRIRHRPPRLPRPRPRPGTCPRP	-0.318
RRIRVRPPRLPRPRPRPNWAPRP	-0.0443
